Measured values reported in patent US20190016825A1 (JIANGSU HENGRUI MEDICINE, published 2019).

Columns and labels:
PCSK9-BP15-His6 [1] = biological target: T1, PCSK9-BP15-His6 (human, UniProt Q8NBP7 31-692, biotin on the BP15 biotin receiving peptide); experiment: blocking ELISA, LDLR-FC (SEQ ID NO: 8) coated, bio-WT-PCSK9 plus antibody
T1 construct: It holds a signal peptide (underlined in print); also called WT PCSK9; bio-WT-PCSK9
Description: The blocking abilities of PCSK9 antibodies of the present invention to the binding of LDLR-FC (produced in-house, sequence is shown in SEQ ID NO: 8) to PCSK9 (SEQ ID NO: 5) were detected by measuring the amount of PCSK9 binding to LDLR in the presence of the antibodies.
LDLR-FC was diluted to 5 μg/ml with phosphate buffer and coated in the 96-well ELISA plate, then incubated at 4° C. overnight. The plate was washed and then blocked with Tris buffer (including 0.9 mM CaCl₂, 0.05% Tween 20 and 5% skim milk) at 37° C. for 2 hours. Then the plate was washed again and 100 μl/well of the mixture of biotin-labeled PCSK9 (bio-WT-PCSK9, diluted to the final concentration of 2 μg/ml with Tris buffer containing 0.9 mM CaCl₂, 0.05% Tween 20 and 1% skim milk) and antibody samples (diluted with Tris buffer containing 0.9 mM CaCl₂, 0.05% Tween 20 and 1% skim milk) were added and incubated at 37° C. for 1 hour. Then the plate was washed again and horseradish peroxidase-streptavidin (Sigma, CAT#52438) was added and incubated at 37° C. for 1 hour. Then the plate was washed and tetramethylbenzidine solution was added for development. Finally, the stop solution was added and the OD450 was measured on the Microplate reader, then IC50 was calculated.

PCSK9-His6 = biological target: T2, PCSK9-His6 (human, UniProt Q8NBP7 31-692, limits assumed); experiment: BIAcore, antibody captured by human Fab capture molecule on CM5 chip, PCSK9-His6 in flow
T2 construct: also called human PCSK9 with His tag; huPCSK9
Excerpt: According to the method described in the Human Fab Capture Kit (Cat. #28-9583-25, GE), the human Fab capture molecule was covalently linked to the CM5 biochip (Cat. # BR-1000-12, GE) so that the antibodies to be tested were affinity captured. Then, human PCSK9 antigen (human PCSK9 with His tag: PCSK9-His6, SEQ ID NO: 1) flowed through the surface of the biochip, and the reaction signal was detected in real time using a Biacore instrument to obtain the association and dissociation curves. Finally, the affinity values were obtained by fitting and are shown at table 9 below. After each cycle of dissociation was finished in the experiment, the biochip was washed and regenerated with regeneration solution in Human Fab Capture kit (GE).

PCSK9-D374Y-BP15-His6 [2] = biological target: T3, PCSK9-D374Y-BP15-His6 (human, UniProt Q8NBP7 31-692, biotin on the BP15 biotin receiving peptide); experiment: ELISA, bio-PCSK9-Y captured on streptavidin plate
T3 construct: also called PCSK9-Y; mutant PCSK9
Description: The binding ability of anti-PCSK9 antibodies of the present invention to PCSK9-Y was detected by measuring the amount of antibodies binding to PCSK9-Y (mutant PCSK9, SEQ ID NO: 6) fixed on the ELISA plate.
Streptavidin (sigma, CAT#54762) was diluted to 2 μg/ml with PBS and coated into 96-well ELISA plate at 4° C. overnight. The plate was washed and then blocked with Tris buffer (including 0.9 mM CaCl₂, 0.05% Tween 20 and 5% skim milk) at 37° C. for 2 hours. Then the plate was washed again and 100 μl/well of the biotin-labeled PCSK9-Y, produced in-house, (bio-PCSK9-Y, diluted with Tris buffer containing 0.9 mM CaCl₂, 0.05% Tween 20 and 1% skim milk) was added and incubated at 37° C. for 1 hour. After the wash step, different concentrations of diluted PCSK9 antibody samples were added to the plate and incubated at 37° C. for 1 hour. Then the plate was washed again and HRP-goat-anti-human (H+L) antibody (Jackson ImmunoResearch, CAT#109-035-088) was added and incubated at 37° C. for 1 hour. Then the plate was washed again and tetramethylbenzidine solution was added for development. Finally, the stop solution was added and the OD450 value was measured on the Microplate reader, and then EC50 was calculated.
The results of ELISA test for the binding ability of chimeric antibodies and back-mutated antibodies of the present invention to mutant PCSK9 are shown in table 6.

PCSK9-D374Y-BP15-His6 [3] = biological target: T3, PCSK9-D374Y-BP15-His6; experiment: blocking ELISA, LDLR-FC (SEQ ID NO: 8) coated, bio-PCSK9-Y plus antibody
Description: The blocking abilities of anti-PCSK9 antibodies to the binding of LDLR-FC (SEQ ID NO: 8) to PCSK9-Y (mutant PCSK9, SEQ ID NO: 6) were detected by measuring the amount of PCSK9-Y binding to LDLR in the presence of the antibodies.
LDLR-FC was diluted to 2 μg/ml with phosphate buffer and coated in the 96-well ELISA plate (Costar, CAT#3590), then incubated at 4° C. overnight. The plate was washed and then blocked with Tris buffer (including 0.9 mM CaCl₂, 0.05% Tween 20 and 5% skim milk) at 37° C. for 2 hours. Then the plate was washed again and 100 μl/well of the mixture of biotin-labeled PCSK9-Y (bio-PCSK9-Y, diluted to final concentration of […] with Tris buffer containing 0.9 mM CaCl₂, 0.05% Tween 20 and 1% skim milk) and antibody samples (diluted with Tris buffer containing 0.9 mM CaCl₂, 0.05% Tween 20 and 1% skim milk) were added and incubated at 37° C. for 1 hour. Then the plate was washed again and horseradish peroxidase-streptavidin (sigma, CAT#S2438) was added and incubated at 37° C. for 1 hour. Then the plate was washed and tetramethylbenzidine solution was added for development. Finally, the stop solution was added and the OD450 value was measured on the Microplate reader, then IC50 was calculated.
The results of blocking test for the blocking effects of the chimeric antibodies and back-mutated antibodies of the present invention on the binding of LDLR-FC/PCSK9-Y are shown in table 7.

PCSK9-BP15-His6 [4] = biological target: T1, PCSK9-BP15-His6; experiment: ELISA, bio-WT-PCSK9 captured on streptavidin plate
Description: The binding ability of anti-PCSK9 antibodies of the present invention to PCSK9 was detected by measuring the amount of antibodies binding to wild-type PCSK9 protein (WT PCSK9, SEQ ID NO: 5) fixed on the ELISA plate.
Streptavidin (sigma, CAT#S4762) was diluted to 2 μg/ml with PBS and coated into 96-well ELISA plate, at 4° C. overnight. The plate was washed and then blocked with Tris buffer (including 0.9 mM CaCl2, 0.05% Tween 20 and 5% skim milk) at 37° C. for 2 hours. Then the plate was washed again and 100 μl/well of the biotin-labeled PCSK9, produced in-house, (bio-WT-PCSK9, diluted with Tris buffer containing 0.9 mM CaCl2, 0.05% Tween 20 and 1% skim milk), was added and incubated at 37° C. for 1 hour. After the wash step, different concentrations of diluted PCSK9 antibody samples was added to the plate and incubated at 37° C. for 1 hour. Then the plate was washed again and HRP-goat-anti-human (H+L) antibody (Jackson ImmunoResearch, CAT#109-035-088) was added and incubated at 37° C. for 1 hour. Then the plate was washed again and tetramethylbenzidine solution was added for development. Finally, the stop solution was added and the OD450 value was measured on the Microplate reader, and then EC50 was calculated.

IC50 (PCSK9-BP15-His6 [1]): 0.76 µg/mL
Kd (PCSK9-His6): 0.288 nM
EC50 (PCSK9-D374Y-BP15-His6 [2]): 0.0179 µg/mL
IC50 (PCSK9-D374Y-BP15-His6 [3]): 0.53 µg/mL
EC50 (PCSK9-BP15-His6 [4]): 0.012 µg/mL
B1: h001-4-WT (antibody)
heavy: not shown
light: DIVMSQSPSSLSASVGDRVTITCKSSQSLLNSRTRKNFLAWYQQKPGKSPKLLIYWASTRESGVPDRFSGSGSGTDFTLTISSLQPEDFATYYCKQSFNLFTFGQGTKLEIKRTVAAPSVFIFPPSDEQLKSGTASVVCLLNNFYPREAKVQWKVDNALQSGNSQESVTEQDSKDSTYSLSSTLTLSKADYEKHKVYACEVTHQGLSSPVTKSFNRGEC
notes: both labels are treated as one molecule; also called H001-4 IgG1 format; h001_VH.1 + h001_VL.1C
